{
  "source": "paper PMC11079166",
  "molecules": {"B1": {"name": "C-terminal fragment of BBK32 of B. burgdorferi B31 (domain or fragment)", "chain": "SNRYQSYLEGVKYNVDSAIQTITKIYNTYTLFSTKLTQMYSTRLDNFAKAKAKEEAAKFTKEDLEKNFKTLLNYIQVSVKTAANFVYINDTHAKRKLENIEAEIKTLIAKIKEQSNLYEAYKAIVTSILLMRDSLKEVQGIID"}},
  "key": {"[1]": {"target": "complement component C1r (human)"}, "[2]": {"target": "CihC/FbpC of B. hermsii FRO (aa 21-374) (Borrelia hermsii FRO)", "experiment": "ELISA; CihC/FbpC orthologs (5 µg/ml) immobilised, increasing plasminogen (0 to 1.5 µM); apparent dissociation constant by non-linear regression, one-site specific binding model"}, "[3]": {"target": "CihC/FbpC ortholog of B. turicatae (aa 21-363) (Borrelia turicatae)", "experiment": "ELISA; CihC/FbpC orthologs (5 µg/ml) immobilised, increasing plasminogen (0 to 1.5 µM); apparent dissociation constant by non-linear regression, one-site specific binding model"}, "[4]": {"target": "CihC of B. recurrentis A17 (aa 20-356) (Borrelia recurrentis A17)", "experiment": "ELISA; CihC/FbpC orthologs (5 µg/ml) immobilised, increasing plasminogen (0 to 1.5 µM); apparent dissociation constant by non-linear regression, one-site specific binding model"}, "[5]": {"target": "CihC/FbpC ortholog of B. parkeri (aa 25-349) (Borrelia parkeri)", "experiment": "ELISA; CihC/FbpC orthologs (5 µg/ml) immobilised, increasing plasminogen (0 to 1.5 µM); apparent dissociation constant by non-linear regression, one-site specific binding model"}},
  "data": [
    {"molecule": "CihC/FbpC of B. hermsii FRO (aa 21-374) (natural protein)", "values": [
      {"measurement": "IC50 of inhibition of the classical pathway (MAC formation, anti-C5b-9 ELISA on IgM; NHS pre-incubated with 0.001 to 4 µM protein)", "setting": "[1]", "result": 56, "unit": "nM"}
    ]},
    {"molecule": "CihC of B. recurrentis A17 (aa 20-356) (natural protein)", "values": [
      {"measurement": "IC50 of inhibition of the classical pathway (MAC formation, anti-C5b-9 ELISA on IgM; NHS pre-incubated with 0.001 to 4 µM protein)", "setting": "[1]", "result": 62, "unit": "nM"}
    ]},
    {"molecule": "CihC/FbpC ortholog of B. parkeri (aa 25-349) (natural protein)", "values": [
      {"measurement": "IC50 of inhibition of the classical pathway (MAC formation, anti-C5b-9 ELISA on IgM; NHS pre-incubated with 0.001 to 4 µM protein)", "setting": "[1]", "result": 63, "unit": "nM"}
    ]},
    {"molecule": "CihC/FbpC ortholog of B. turicatae (aa 21-363) (natural protein)", "values": [
      {"measurement": "IC50 of inhibition of the classical pathway (MAC formation, anti-C5b-9 ELISA on IgM; NHS pre-incubated with 0.001 to 4 µM protein)", "setting": "[1]", "result": 95, "unit": "nM"}
    ]},
    {"molecule": "human glu-plasminogen (natural protein)", "values": [
      {"measurement": "Kd", "setting": "[2]", "result": 24.2, "unit": "nM"},
      {"measurement": "Kd", "setting": "[3]", "result": 284, "unit": "nM"},
      {"measurement": "Kd", "setting": "[4]", "result": 93.1, "unit": "nM"},
      {"measurement": "Kd", "setting": "[5]", "result": 62.7, "unit": "nM"}
    ]},
    {"molecule": "CihC-C of B. recurrentis (aa 195-356) (domain or fragment)", "values": [
      {"measurement": "IC50 of inhibition of the classical pathway (MAC formation, anti-C5b-9 ELISA on IgM; NHS pre-incubated with 0.001 to 4 µM protein)", "setting": "[1]", "result": 272, "unit": "nM"}
    ]},
    {"molecule": "B1", "values": [
      {"measurement": "IC50 of inhibition of the classical pathway (MAC formation, anti-C5b-9 ELISA on IgM; NHS pre-incubated with 0.001 to 4 µM protein)", "setting": "[1]", "result": 75, "unit": "nM"}
    ]}
  ]
}
